According to the supplement of paper PMC10065799, “High-throughput profiling of sequence recognition by tyrosine kinases and SH2 domains using bacterial peptide display” (eLife, 2023):

The sequences below were run against FGFR3 (UniProt P22607) (assay: phosphorylation enrichment, bacterial display (enrichment ratio); higher = better substrate or ligand; peptides without Tyr show the background).
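Note: 11-residue human phosphosite peptides and single-mutation variants displayed on the E. coli surface, counted by deep sequencing, each peptide's frequency after selection divided by its frequency in the unselected input library; frequency after pTyr selection over input frequency; kinase dosed for 20-30% of maximal phosphorylation in three min.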

FGFR3, sequence (P22607 whole entry, looked up): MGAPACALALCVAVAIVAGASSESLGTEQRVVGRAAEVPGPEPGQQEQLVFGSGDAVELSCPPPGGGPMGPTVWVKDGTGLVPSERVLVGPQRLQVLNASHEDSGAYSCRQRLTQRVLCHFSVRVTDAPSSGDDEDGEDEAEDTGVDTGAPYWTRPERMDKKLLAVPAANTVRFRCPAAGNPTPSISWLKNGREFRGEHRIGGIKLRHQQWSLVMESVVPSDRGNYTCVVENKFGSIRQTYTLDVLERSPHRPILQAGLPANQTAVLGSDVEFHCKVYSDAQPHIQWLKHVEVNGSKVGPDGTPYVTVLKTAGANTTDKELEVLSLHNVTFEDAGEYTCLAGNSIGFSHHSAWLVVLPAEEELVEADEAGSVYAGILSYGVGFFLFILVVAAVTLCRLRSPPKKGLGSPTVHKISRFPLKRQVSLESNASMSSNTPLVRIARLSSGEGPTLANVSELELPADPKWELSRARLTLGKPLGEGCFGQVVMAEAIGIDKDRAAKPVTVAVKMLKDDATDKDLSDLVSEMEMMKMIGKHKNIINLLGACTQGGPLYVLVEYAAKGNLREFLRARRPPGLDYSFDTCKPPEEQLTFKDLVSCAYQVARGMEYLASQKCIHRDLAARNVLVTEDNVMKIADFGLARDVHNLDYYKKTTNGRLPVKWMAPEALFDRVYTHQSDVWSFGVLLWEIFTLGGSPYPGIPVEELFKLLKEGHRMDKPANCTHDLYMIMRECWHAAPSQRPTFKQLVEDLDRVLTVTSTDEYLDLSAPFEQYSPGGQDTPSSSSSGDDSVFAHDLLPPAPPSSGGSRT

| Sequence | phosphorylation enrichment |
| --- | --- |
| APRKVYDTQDD [ZFPL1_Y215_R218Q] | 0.653 |
| GCVRMYELVHR [GLE1_Y135] | 0.71 |
| LSIQCYLRASD [HMGCS2_Y262_L266S] | 5.23 |
| QPGTDYKIYLY [FN1_Y1970] | 0.846 |
| DSNLIYSQIWS [FCRL3_Y662_P660L] | 6.79 |
| AASTDYFKRGD [PDHA1_Y242_YF] | 0.426 |
| KDFTKYVAYIE [KDM4B_Y31_N29T] | 0.734 |
| TLQWMYGCDVG [HLA-B_Y123_S121W] | 0.814 |
| SVVVPYKPPEV [TP53_Y220_E221K] | 0.448 |
| CEAMEYQESKQ [BTK_Y511_L512Q] | 1.08 |
| PFTRNYFVWAV [CYBA_Y87_R90W_YF] | 10.9 |
| EFISEYCGEII [EZH2_Y641] | 1.05 |
| EQAERYDDMAA [YWHAG_Y20] | 0.737 |
| PSELFYSKISP [SMG1_Y2254_G2258S_YF] | 2.72 |
| AGARMYGVLPW [PLP1_Y207_D203G] | 0.495 |
| VVTGPYEKPSL [KIR3DS1_Y221_L220P] | 0.491 |
| GDRPVYSEDEQ [CHST6_Y362_Y358D] | 0.872 |

| Sequence | phosphorylation enrichment |
| --- | --- |
| SVVVPYEPSEV [TP53_Y220_P223S] | 0.846 |
| IIWDSYTTNKV [GNB1_Y85] | 0.729 |
| SSAKTYSRMRL [NBEAL2_Y1835_E1833K] | 0.394 |
| LGPSDYFGETA [PRKAR1A_Y323_I327T] | 0.636 |
| CTSIHYNYMCN [TP53_Y234_T231S] | 0.591 |
| LAIERYVVVCK [RHO_Y136] | 1.21 |
| NGVSYYINLCQ [IGF2R_Y2025] | 1.04 |
| LWQTIYNLEAE [TNNT2_Y251_S249T] | 1.13 |
| FPPTHYIRRMP [SLC4A11_Y820_V824M_YF] | 0.502 |
| GYQPDYGQPAG [SYP_Y278] | 0.551 |
| MCTVDYLLRLQ [RYR1_Y3921_I3916M] | 0.684 |
| FGGLRYGFGVL [KRTAP20-2_Y13_YF] | 0.56 |
| PGVDIYVSPNM [PADI3_Y51_I52V] | 0.781 |
| CYVYYYSYLLK [PTEN_Y178_R173C] | 1.79 |
| DLAAQYTTVGH [SGSH_Y240_R245H] | 0.651 |
| KGSEGYLAATF [NF1_Y2503_YF] | 0.549 |

These sequences were tested on c-Src in the same assay as above.

| Sequence | phosphorylation enrichment |
| --- | --- |
| APRKVYDTQDD [ZFPL1_Y215_R218Q] | 0.479 |
| GCVRMYELVHR [GLE1_Y135] | 0.761 |
| LSIQCYLRASD [HMGCS2_Y262_L266S] | 0.998 |
| QPGTDYKIYLY [FN1_Y1970] | 0.804 |
| DSNLIYSQIWS [FCRL3_Y662_P660L] | 7.08 |
| AASTDYFKRGD [PDHA1_Y242_YF] | 0.352 |
| KDFTKYVAYIE [KDM4B_Y31_N29T] | 0.523 |
| TLQWMYGCDVG [HLA-B_Y123_S121W] | 0.354 |
| SVVVPYKPPEV [TP53_Y220_E221K] | 0.596 |
| CEAMEYQESKQ [BTK_Y511_L512Q] | 0.629 |
| PFTRNYFVWAV [CYBA_Y87_R90W_YF] | 1.27 |
| EFISEYCGEII [EZH2_Y641] | 0.576 |
| EQAERYDDMAA [YWHAG_Y20] | 0.426 |
| PSELFYSKISP [SMG1_Y2254_G2258S_YF] | 3.48 |
| AGARMYGVLPW [PLP1_Y207_D203G] | 3.6 |
| VVTGPYEKPSL [KIR3DS1_Y221_L220P] | 0.472 |
| GDRPVYSEDEQ [CHST6_Y362_Y358D] | 0.673 |

| Sequence | phosphorylation enrichment |
| --- | --- |
| SVVVPYEPSEV [TP53_Y220_P223S] | 0.509 |
| IIWDSYTTNKV [GNB1_Y85] | 0.395 |
| SSAKTYSRMRL [NBEAL2_Y1835_E1833K] | 0.427 |
| LGPSDYFGETA [PRKAR1A_Y323_I327T] | 0.55 |
| CTSIHYNYMCN [TP53_Y234_T231S] | 0.5 |
| LAIERYVVVCK [RHO_Y136] | 0.859 |
| NGVSYYINLCQ [IGF2R_Y2025] | 0.374 |
| LWQTIYNLEAE [TNNT2_Y251_S249T] | 8.82 |
| FPPTHYIRRMP [SLC4A11_Y820_V824M_YF] | 0.543 |
| GYQPDYGQPAG [SYP_Y278] | 0.342 |
| MCTVDYLLRLQ [RYR1_Y3921_I3916M] | 0.487 |
| FGGLRYGFGVL [KRTAP20-2_Y13_YF] | 0.35 |
| PGVDIYVSPNM [PADI3_Y51_I52V] | 0.885 |
| CYVYYYSYLLK [PTEN_Y178_R173C] | 1.47 |
| DLAAQYTTVGH [SGSH_Y240_R245H] | 0.699 |
| KGSEGYLAATF [NF1_Y2503_YF] | 0.564 |
